Measured values: article PMC9610207 (Viruses, 2022)
No end group written: not given here.

T1: MPP5 PDZ (amino acids 238–336) (human, UniProt Q8N3R9 238-336)
T1 sequence (looked up): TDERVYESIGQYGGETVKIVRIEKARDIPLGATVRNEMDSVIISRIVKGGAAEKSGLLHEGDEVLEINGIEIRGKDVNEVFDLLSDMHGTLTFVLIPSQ

B1: FITC-labeled peptide of the C-terminus of the SARS-CoV-2 E protein (E66-77) (peptide)
peptide: NSSRVPDLLV
modifications: also: FITC-labeled
notes: also called peptide from the E protein
B2: FITC-labeled peptide of the C-terminus of SARS-CoV-2 ORF3a (ORF3A 266-275) (peptide)
peptide: EPTTTTSVPL
modifications: also: FITC-labeled

What was measured:
[1] = target: T1, MPP5 PDZ (amino acids 238–336); assay: fluorescence polarisation; conditions: both partners purified
[2] = target: SNX27 PDZ (amino acids 740–141) (human, UniProt Q96L92 43-136); assay: fluorescence polarisation; conditions: both partners purified

Binder	Kd [1] [µM]	Kd [2] [µM]
B1	400 ± 55	> 400
B2	–	> 400
